In IntAct's records for PubMed 12006496:

B1: Phytochrome A (Arabidopsis thaliana (Mouse-ear cress)), P14712 (parent)
chain: MSGSRPTQSSEGSRRSRHSARIIAQTTVDAKLHADFEESGSSFDYSTSVRVTGPVVENQPPRSDKVTTTYLHHIQKGKLIQPFGCLLALDEKTFKVIAYSENASELLTMASHAVPSVGEHPVLGIGTDIRSLFTAPSASALQKALGFGDVSLLNPILVHCRTSAKPFYAIIHRVTGSIIIDFEPVKPYEVPMTAAGALQSYKLAAKAITRLQSLPSGSMERLCDTMVQEVFELTGYDRVMAYKFHEDDHGEVVSEVTKPGLEPYLGLHYPATDIPQAARFLFMKNKVRMIVDCNAKHARVLQDEKLSFDLTLCGSTLRAPHSCHLQYMANMDSIASLVMAVVVNEEDGEGDAPDATTQPQKRKRLWGLVVCHNTTPRFVPFPLRYACEFLAQVFAIHVNKEVELDNQMVEKNILRTQTLLCDMLMRDAPLGIVSQSPNIMDLVKCDGAALLYKDKIWKLGTTPSEFHLQEIASWLCEYHMDSTGLSTDSLHDAGFPRALSLGDSVCGMAAVRISSKDMIFWFRSHTAGEVRWGGAKHDPDDRDDARRMHPRSSFKAFLEVVKTRSLPWKDYEMDAIHSLQLILRNAFKDSETTDVNTKVIYSKLNDLKIDGIQELEAVTSEMVRLIETATVPILAVDSDGLVNGWNTKIAELTGLSVDEAIGKHFLTLVEDSSVEIVKRMLENALEGTEEQNVQFEIKTHLSRADAGPISLVVNACASRDLHENVVGVCFVAHDLTGQKTVMDKFTRIEGDYKAIIQNPNPLIPPIFGTDEFGWCTEWNPAMSKLTGLKREEVIDKMLLGEVFGTQKSCCRLKNQEAFVNLGIVLNNAVTSQDPEKVSFAFFTRGGKYVECLLCVSKKLDREGVVTGVFCFLQLASHELQQALHVQRLAERTAVKRLKALAYIKRQIRNPLSGIMFTRKMIEGTELGPEQRRILQTSALCQKQLSKILDDSDLESIIEGCLDLEMKEFTLNEVLTASTSQVMMKSNGKSVRITNETGEEVMSDTLYGDSIRLQQVLADFMLMAVNFTPSGGQLTVSASLRKDQLGRSVHLANLEIRLTHTGAGIPEFLLNQMFGTEEDVSEEGLSLMVSRKLVKLMNGDVQYLRQAGKSSFIITAELAAANK
partner: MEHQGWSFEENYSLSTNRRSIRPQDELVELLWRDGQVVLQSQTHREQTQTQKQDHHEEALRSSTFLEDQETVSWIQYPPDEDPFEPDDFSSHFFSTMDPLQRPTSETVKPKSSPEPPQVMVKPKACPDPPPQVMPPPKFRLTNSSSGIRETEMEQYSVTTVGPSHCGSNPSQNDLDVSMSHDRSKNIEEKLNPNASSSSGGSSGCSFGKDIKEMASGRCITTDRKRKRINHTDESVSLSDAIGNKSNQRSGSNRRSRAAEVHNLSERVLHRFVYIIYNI
B2: Phytochrome B (Arabidopsis thaliana (Mouse-ear cress)), P14713 (parent)
chain: MVSGVGGSGGGRGGGRGGEEEPSSSHTPNNRRGGEQAQSSGTKSLRPRSNTESMSKAIQQYTVDARLHAVFEQSGESGKSFDYSQSLKTTTYGSSVPEQQITAYLSRIQRGGYIQPFGCMIAVDESSFRIIGYSENAREMLGIMPQSVPTLEKPEILAMGTDVRSLFTSSSSILLERAFVAREITLLNPVWIHSKNTGKPFYAILHRIDVGVVIDLEPARTEDPALSIAGAVQSQKLAVRAISQLQALPGGDIKLLCDTVVESVRDLTGYDRVMVYKFHEDEHGEVVAESKRDDLEPYIGLHYPATDIPQASRFLFKQNRVRMIVDCNATPVLVVQDDRLTQSMCLVGSTLRAPHGCHSQYMANMGSIASLAMAVIINGNEDDGSNVASGRSSMRLWGLVVCHHTSSRCIPFPLRYACEFLMQAFGLQLNMELQLALQMSEKRVLRTQTLLCDMLLRDSPAGIVTQSPSIMDLVKCDGAAFLYHGKYYPLGVAPSEVQIKDVVEWLLANHADSTGLSTDSLGDAGYPGAAALGDAVCGMAVAYITKRDFLFWFRSHTAKEIKWGGAKHHPEDKDDGQRMHPRSSFQAFLEVVKSRSQPWETAEMDAIHSLQLILRDSFKESEAAMNSKVVDGVVQPCRDMAGEQGIDELGAVAREMVRLIETATVPIFAVDAGGCINGWNAKIAELTGLSVEEAMGKSLVSDLIYKENEATVNKLLSRALRGDEEKNVEVKLKTFSPELQGKAVFVVVNACSSKDYLNNIVGVCFVGQDVTSQKIVMDKFINIQGDYKAIVHSPNPLIPPIFAADENTCCLEWNMAMEKLTGWSRSEVIGKMIVGEVFGSCCMLKGPDALTKFMIVLHNAIGGQDTDKFPFPFFDRNGKFVQALLTANKRVSLEGKVIGAFCFLQIPSPELQQALAVQRRQDTECFTKAKELAYICQVIKNPLSGMRFANSLLEATDLNEDQKQLLETSVSCEKQISRIVGDMDLESIEDGSFVLKREEFFLGSVINAIVSQAMFLLRDRGLQLIRDIPEEIKSIEVFGDQIRIQQLLAEFLLSIIRYAPSQEWVEIHLSQLSKQMADGFAAIRTEFRMACPGEGLPPELVRDMFHSSRWTSPEGLGLSVCRKILKLMNGEVQYIRESERSYFLIILELPVPRKRPLSTASGSGDMMLMMPY
partner: B1 partner
B3: Phytochrome A (Arabidopsis thaliana (Mouse-ear cress)), P14712 (parent)
chain: B1 chain
partner: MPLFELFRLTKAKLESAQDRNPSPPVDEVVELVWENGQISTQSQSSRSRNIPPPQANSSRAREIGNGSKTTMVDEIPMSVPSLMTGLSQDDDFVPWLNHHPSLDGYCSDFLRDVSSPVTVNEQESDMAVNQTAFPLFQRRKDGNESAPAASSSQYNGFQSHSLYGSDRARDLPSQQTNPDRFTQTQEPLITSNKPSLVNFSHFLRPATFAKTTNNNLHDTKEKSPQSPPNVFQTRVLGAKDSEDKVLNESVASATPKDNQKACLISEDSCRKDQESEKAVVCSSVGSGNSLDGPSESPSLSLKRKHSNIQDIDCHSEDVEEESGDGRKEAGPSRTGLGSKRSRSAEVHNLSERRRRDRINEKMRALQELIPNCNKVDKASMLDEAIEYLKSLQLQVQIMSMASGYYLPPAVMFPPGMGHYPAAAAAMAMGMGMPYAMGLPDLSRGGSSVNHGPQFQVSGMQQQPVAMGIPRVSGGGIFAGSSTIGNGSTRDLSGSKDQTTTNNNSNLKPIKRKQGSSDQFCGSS
B4: Phytochrome B (Arabidopsis thaliana (Mouse-ear cress)), P14713 (parent)
chain: B2 chain
partner: B3 partner

Variants of: B1
Details: with PIF4, Q8W2F3-2

| Variant | effect of a mutation on the interaction |
| --- | --- |
| G787E | decreasing interaction |
| A715V | decreasing interaction |

Variants of: B2
Details: with PIF4, Q8W2F3-2

| Variant | effect of a mutation on the interaction |
| --- | --- |
| G767R | decreasing interaction |

Variants of: B3
Details: with pif3_arath PIF3, O80536

| Variant | effect of a mutation on the interaction |
| --- | --- |
| G750E | decreasing interaction |
| A715V | decreasing interaction |

Variants of: B4
Details: with pif3_arath PIF3, O80536

| Variant | effect of a mutation on the interaction |
| --- | --- |
| G767R | decreasing interaction |
